Results on 3 molecules are retold here after patent publication US20230000771A1 (WISCONSIN ALUMNI RESEARCH FOUNDATION, published 2023).

Assay [1] concerns the target T1, PD-L1 (SPR target) (UniProt Q9NZQ7 19-238, limits assumed).
T1 construct: also called PD-L1/CD274
In words: SPR; drawn table under the sensorgrams, column Ka. For orientation: Surface plasmon resonance follows binding to a sensor surface in real time, without labels.

Assay [2] deals with T1, PD-L1 (SPR target). Description: SPR; drawn table under the sensorgrams, column Kd.
Assay [3] addresses T1, PD-L1 (SPR target). In words: SPR; drawn table under the sensorgrams, column KD.
The target in assay [4] is T1, PD-L1 (SPR target). Description: SPR.

Where no end group is shown, it is not given here.

T1 sequence (Q9NZQ7 19-238 limits assumed): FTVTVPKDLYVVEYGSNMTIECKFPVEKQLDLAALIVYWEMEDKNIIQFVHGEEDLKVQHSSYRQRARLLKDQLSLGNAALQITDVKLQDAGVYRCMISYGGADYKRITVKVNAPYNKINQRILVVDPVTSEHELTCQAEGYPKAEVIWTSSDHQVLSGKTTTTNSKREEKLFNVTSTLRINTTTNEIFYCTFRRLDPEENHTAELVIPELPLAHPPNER

B1: aPD-L1 (full anti-PD-L1 antibody) (antibody, V domains shown)
VH: EVQLLESGGGLVQPGGSLSLSCAASGFSFSSGYDMCWVRQAPGKGLEWIACIAAGSAGITYDANWAKGRFTISRDNSKNTLYLQMNSLRAEDTAVYYCARSAFSFDYAMDLWGQGTLVTVSS
VL: DIQMTQSPSTLSASVGDRVTITCQASQSISSHLNWYQQKPGKAPKLLIYKASTLASGVPSRFSGSGSGTEFTLTISSLQPDDFATYYCQQGYSWGNVDNVFGGGTKVTVL
B1: in the assay with PD-L1 (SPR target) [1], the kon is 583000 M⁻¹ s⁻¹. The molecule also registered a koff in the assay with PD-L1 (SPR target) [2] of 0.00122 s⁻¹. The molecule further showed a dissociation constant Kd in the assay with PD-L1 (SPR target) [3] of 2.09 nM.

B2: PD-L1-binding peptide (pPD-1), free peptide (peptide)
peptide: HVVWHRESPSGQTDTLAA
modifications: not fully specified (C-terminus)
notes: also called free pPD-1
In turn, B2 showed a koff in the assay with PD-L1 (SPR target) [2] of 0.127 s⁻¹. For the same molecule, in the assay with PD-L1 (SPR target) [3], binding was put at a Kd of 119000 nM.

B3: dendrimer-peptide conjugate G7-pPD1 (pPD-1 peptides conjugated to PAMAM dendrimer) (other)
peptide: HVVWHRESPSGQTDTLAA
modifications: not fully specified (C-terminus); also: conjugated to G7 PAMAM dendrimer, attachment site and number per dendrimer not given here
notes: Multivalent conjugate; Only the peptide part is a polypeptide; also called dendrimer-pPD-1; dendrimer-peptide conjugates
On to B3, for which the “strength of KD relative to free peptide (pPD1)” value in the assay with PD-L1 (SPR target) [4] is ~100000 fold. The same molecule had an on-rate (kon) with PD-L1 (SPR target) [1] of 252000 M⁻¹ s⁻¹. The molecule further registered a koff with PD-L1 (SPR target) [2] of 0.000693 s⁻¹. The same molecule came in with a Kd with PD-L1 (SPR target) [3] of 2.75 nM.

A word on the kon: it is the second-order rate constant of association. Usually koff stands for the first-order rate constant of dissociation. High values mean fast dissociation, low ones slow dissociation. One may read the Kd as the constant that tells how readily two partners part at equilibrium. A lower Kd goes with a tighter complex.
